The target in one series is T1, Ribokinase (RbsK) (Escherichia coli, UniProt P0A9J6).
T1 construct: full length, N-terminal His6 tag (pET15b), expressed in E. coli BL21(DE3) pLys; 32,290 Da
T1 sequence (P0A9J6 1-309): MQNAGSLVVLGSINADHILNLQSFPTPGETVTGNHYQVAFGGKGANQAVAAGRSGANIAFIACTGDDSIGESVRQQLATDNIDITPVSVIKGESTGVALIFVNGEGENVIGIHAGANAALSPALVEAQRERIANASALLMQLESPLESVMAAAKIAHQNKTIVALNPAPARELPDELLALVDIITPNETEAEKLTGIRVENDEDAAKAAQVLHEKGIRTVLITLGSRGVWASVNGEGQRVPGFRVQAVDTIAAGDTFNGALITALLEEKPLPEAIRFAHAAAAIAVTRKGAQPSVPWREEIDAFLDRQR
Put plainly: phosphorylation, TLC. The class given is biochemical. Particulars: 2 mM ATP with PEP and pyruvate kinase, 1 mM MgCl2, 10 mM HEPES pH 7.0, 37 °C.

Substrate in series [1]: Cn1c(=O)cc[nH]c1=O
Put plainly: purified protein. To be noted: 5 mM D-Rib5P, 2 mM MnCl2, 50 mM HEPES pH 7.0, 37 °C, reverse (synthesis) direction.

Substrate in series [2]: O=c1cc[nH]c(=S)[nH]1
Put plainly: purified protein. To be noted: 5 mM D-Rib5P, 2 mM MnCl2, 50 mM HEPES pH 7.0, 37 °C, reverse (synthesis) direction.

Substrate in series [3]: Nc1cc(=O)[nH]c(=O)[nH]1
The experiment in a line: purified protein. Particulars: 5 mM D-Rib5P, 2 mM MnCl2, 50 mM HEPES pH 7.0, 37 °C, reverse (synthesis) direction.

Substrate in series [4]: O=c1[nH]ccc(=S)[nH]1
Put plainly: purified protein. Particulars: 5 mM D-Rib5P, 2 mM MnCl2, 50 mM HEPES pH 7.0, 37 °C, reverse (synthesis) direction.

One may read the Km as the substrate concentration at which the rate is half of its maximum. As a reminder, the kcat is the number of substrate molecules converted per active site and unit of time at saturation.

For the molecule `OC[C@H]1OC(O)C[C@@H]1O` (stereo partly drawn) [D-dRib], the “phosphorylation, TLC” value on Ribokinase (RbsK) is given as “D-Rib, D-dRib, D-Xyl, D-Ara,2F-D-Rib, D-Glc were accepted”.

B1: YeiN (ΨMP C-glycosidase; β-pseudouridine 5′-phosphate glycosidase) (Escherichia coli K-12) (protein)
chain: MSELKISPELLQISPEVQDALKNKKPVVALESTIISHGMPFPQNAQTAIEVEETIRKQGAVPATIAIIGGVMKVGLSKEEIELLGREGHNVTKVSRRDLPFVVAAGKNGATTVASTMIIAALAGIKVFATGGIGGVHRGAEHTFDISADLQELANTNVTVVCAGAKSILDLGLTTEYLETFGVPLIGYQTKALPAFFCRTSPFDVSIRLDSASEIARAMVVKWQSGLNGGLVVANPIPEQFAMPEHTINAAIDQAVAEAEAQGVIGKESTPFLLARVAELTGGDSLKSNIQLVFNNAILASEIAKEYQRLAG
Regarding B1, the Km in the series “purified protein [1]” worked out at 1250 ± 330 µM; in the series “purified protein [2]”, 7400 ± 2200 µM; in “purified protein [3]”, 3230 ± 520 µM; in the series “purified protein [4]”, 1980 ± 300 µM. Further, the kcat in “purified protein [1]” turned out to be 0.46 ± 0.04 s⁻¹; in “purified protein [2]”, 0.43 ± 0.10 s⁻¹; in the series “purified protein [3]”, 0.01 ± 0.01 s⁻¹; in “purified protein [4]”, 0.01 ± 0.01 s⁻¹.

The values above are taken from article PMC7722734, “Reverse C-glycosidase reaction provides C-nucleotide building blocks of xenobiotic nucleic acids” (Nature Communications, 2020).
